From patent publication EP1506972A1 (Genentech Inc., dated 2005)

Experiments:
Test in all cases: competitive phage ELISA, soluble IGFBP-1 vs coated IGFBP-1
[1] = biological target: T1, IGF-I D12A (G1S-A70V background) displayed on phage (human; bacteriophage M13)
T1 construct: not shown: M13 gene III fragment (residues 249-406, display carrier) and the IGF-g3 junction
T1 chain: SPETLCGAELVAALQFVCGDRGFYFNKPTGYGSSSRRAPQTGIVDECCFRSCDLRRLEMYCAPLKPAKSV

[2] = biological target: T2, IGF-I L64A (G1S-A70V background) displayed on phage (human; bacteriophage M13)
T2 construct: not shown: M13 gene III fragment (residues 249-406), the display partner, and its junction to IGF-I
T2 chain: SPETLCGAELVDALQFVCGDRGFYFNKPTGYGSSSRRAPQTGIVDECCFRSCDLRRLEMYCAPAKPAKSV

[3] = biological target: T3, IGF-I V70A (single mutant of G1S-A70V) displayed on phage (human; bacteriophage M13)
T3 construct: not shown: Display carrier: M13 gene III protein fragment (residues 249-406) and its junction to residue 70

[4] = biological target: T4, IGF-I E46A (G1S-A70V background) displayed on phage (human; bacteriophage M13)
T4 construct: not shown: Display carrier: M13 gene III protein fragment (residues 249-406) and the junction to it
T4 chain: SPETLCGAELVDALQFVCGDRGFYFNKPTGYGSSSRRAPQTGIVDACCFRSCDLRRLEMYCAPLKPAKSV

[5] = biological target: T5, IGF-I L54A (G1S-A70V background) displayed on phage (human; bacteriophage M13)
T5 construct: not shown: Display carrier: M13 gene III protein fragment (residues 249-406) and the junction to it
T5 chain: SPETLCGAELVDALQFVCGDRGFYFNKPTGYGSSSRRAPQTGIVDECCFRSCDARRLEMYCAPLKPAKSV

[6] = biological target: T6, IGF-I K27A (G1S-A70V background) displayed on phage (human; bacteriophage M13)
T6 construct: not shown: Display carrier: M13 gene III protein fragment (residues 249-406) and the junction to it
T6 chain: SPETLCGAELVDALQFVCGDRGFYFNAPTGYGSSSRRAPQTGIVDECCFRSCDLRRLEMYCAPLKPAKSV

[7] = biological target: T7, IGF-I S69A (G1S-A70V background) displayed on phage (human; bacteriophage M13)
T7 construct: not shown: Display carrier: M13 gene III protein fragment (residues 249-406) and its junction to Val70

[8] = biological target: IGF-I S35A (G1S-A70V background) displayed on phage (human; bacteriophage M13)
[9] = biological target: IGF-I V44A (G1S-A70V background) displayed on phage (human; bacteriophage M13)
[10] = biological target: IGF-I G19A (G1S-A70V background) displayed on phage (human; bacteriophage M13)
[11] = biological target: IGF-I Y24A (G1S-A70V background) displayed on phage (human; bacteriophage M13)
[12] = biological target: IGF-I Q40A (G1S-A70V background) displayed on phage (human; bacteriophage M13)
[13] = biological target: IGF-I F25A (G1S-A70V background) displayed on phage (human; bacteriophage M13)
[14] = biological target: IGF-I R21A (G1S-A70V background) displayed on phage (human; bacteriophage M13)
[15] = biological target: IGF-I S34A (G1S-A70V background) displayed on phage (human; bacteriophage M13)
[16] = biological target: IGF-I G42A (G1S-A70V background) displayed on phage (human; bacteriophage M13)
[17] = biological target: IGF-I F23A (G1S-A70V background) displayed on phage (human; bacteriophage M13)
[18] = biological target: IGF-I G22A (G1S-A70V background) displayed on phage (human; bacteriophage M13)
[19] = biological target: IGF-I R37A (G1S-A70V background) displayed on phage (human; bacteriophage M13)
[20] = biological target: Ala(1-3)-IGF-I, triple alanine mutant of the first three N-terminal amino acids, displayed on phage (human; bacteriophage M13)
[21] = biological target: IGF-I I43A (G1S-A70V background) displayed on phage (human; bacteriophage M13)
[22] = biological target: IGF-I D20A (G1S-A70V background) displayed on phage (human; bacteriophage M13)
[23] = biological target: IGF-I T41A (G1S-A70V background) displayed on phage (human; bacteriophage M13)

- relative IC50 (IC50mut/IC50 G1S-A70V) [1]: 0.5 fold
- relative IC50 (IC50mut/IC50 G1S-A70V) [2]: 1.5 fold
- relative IC50 (IC50mut/IC50 G1S-A70V) [3]: 2.3 fold
- relative IC50 (IC50mut/IC50 G1S-A70V) [4]: 1 fold
- relative IC50 (IC50mut/IC50 G1S-A70V) [5]: 2.8 fold
- relative IC50 (IC50mut/IC50 G1S-A70V) [6]: 1.6 fold
- relative IC50 (IC50mut/IC50 G1S-A70V) [7]: 1.6 fold
- IC50 [8]: 0.0117 µM
- relative IC50 (IC50mut/IC50 G1S-A70V) [8]: 1.4 fold
- IC50 [9]: 0.0188 µM
- relative IC50 (IC50mut/IC50 G1S-A70V) [9]: 2.3 fold
- IC50 [10]: 0.011 µM
- relative IC50 (IC50mut/IC50 G1S-A70V) [10]: 1.3 fold
- IC50 [11]: 0.0133 µM
- relative IC50 (IC50mut/IC50 G1S-A70V) [11]: 1.6 fold
- IC50 [12]: 0.0102 µM
- relative IC50 (IC50mut/IC50 G1S-A70V) [12]: 1.2 fold
- IC50 [13]: 0.181 µM
- relative IC50 (IC50mut/IC50 G1S-A70V) [13]: 22.1 fold
- IC50 [14]: 0.0071 µM
- relative IC50 (IC50mut/IC50 G1S-A70V) [14]: 0.9 fold
- IC50 [15]: 0.0095 µM
- relative IC50 (IC50mut/IC50 G1S-A70V) [15]: 1.2 fold
- IC50 [16]: 0.0157 µM
- relative IC50 (IC50mut/IC50 G1S-A70V) [16]: 1.9 fold
- IC50 [17]: 0.0109 µM
- relative IC50 (IC50mut/IC50 G1S-A70V) [17]: 1.3 fold
- IC50 [18]: 0.0159 µM
- relative IC50 (IC50mut/IC50 G1S-A70V) [18]: 1.9 fold
- IC50 [19]: 0.0123 µM
- relative IC50 (IC50mut/IC50 G1S-A70V) [19]: 1.5 fold
- IC50 [20]: 0.0904 µM
- relative IC50 (IC50mut/IC50 G1S-A70V) [20]: 11 fold
- IC50 [21]: 0.0313 µM
- relative IC50 (IC50mut/IC50 G1S-A70V) [21]: 3.8 fold
- IC50 [22]: 0.0084 µM
- relative IC50 (IC50mut/IC50 G1S-A70V) [22]: 1 fold
- IC50 [23]: 0.0137 µM
- relative IC50 (IC50mut/IC50 G1S-A70V) [23]: 1.7 fold
B1: human IGFBP-1 (other, UniProt P08833 26-259, looked up)
chain: APWQCAPCSAEKLALCPPVSASCSEVTRSAGCGCCPMCALPLGAACGVATARCARGLSCRALPGEQQPLHALTRGQGACVQESDASAPHAAEAGSPESPESTEITEEELLDNFHLMAPSEEDHSILWDAISTYDGSKALHVTNIKKWKEPCRIELYRVVESLAKAQETSGEEISKFYLPNCNKNGFYHSRQCETSMDGEAGLCWCVYPWNGKRIPGSPEIRGDPNCQIYFNVQN
notes: Secreted recombinant protein
